Columns and labels:
Assay in all cases: ELISA; binding of recombinant InvL to α5β1 integrin, collagen V, fibrinogen, mucin or BSA (negative control); two biological replicates; protocol based on ref. 50, details in the supplemental material
fibrinogen = biological target: fibrinogen
collagen V = biological target: collagen V
α5β1 integrin = α5β1 integrin (UniProt P08648)
Chain of UniProt P08648 (P08648 42-1049, chain 1 of 2): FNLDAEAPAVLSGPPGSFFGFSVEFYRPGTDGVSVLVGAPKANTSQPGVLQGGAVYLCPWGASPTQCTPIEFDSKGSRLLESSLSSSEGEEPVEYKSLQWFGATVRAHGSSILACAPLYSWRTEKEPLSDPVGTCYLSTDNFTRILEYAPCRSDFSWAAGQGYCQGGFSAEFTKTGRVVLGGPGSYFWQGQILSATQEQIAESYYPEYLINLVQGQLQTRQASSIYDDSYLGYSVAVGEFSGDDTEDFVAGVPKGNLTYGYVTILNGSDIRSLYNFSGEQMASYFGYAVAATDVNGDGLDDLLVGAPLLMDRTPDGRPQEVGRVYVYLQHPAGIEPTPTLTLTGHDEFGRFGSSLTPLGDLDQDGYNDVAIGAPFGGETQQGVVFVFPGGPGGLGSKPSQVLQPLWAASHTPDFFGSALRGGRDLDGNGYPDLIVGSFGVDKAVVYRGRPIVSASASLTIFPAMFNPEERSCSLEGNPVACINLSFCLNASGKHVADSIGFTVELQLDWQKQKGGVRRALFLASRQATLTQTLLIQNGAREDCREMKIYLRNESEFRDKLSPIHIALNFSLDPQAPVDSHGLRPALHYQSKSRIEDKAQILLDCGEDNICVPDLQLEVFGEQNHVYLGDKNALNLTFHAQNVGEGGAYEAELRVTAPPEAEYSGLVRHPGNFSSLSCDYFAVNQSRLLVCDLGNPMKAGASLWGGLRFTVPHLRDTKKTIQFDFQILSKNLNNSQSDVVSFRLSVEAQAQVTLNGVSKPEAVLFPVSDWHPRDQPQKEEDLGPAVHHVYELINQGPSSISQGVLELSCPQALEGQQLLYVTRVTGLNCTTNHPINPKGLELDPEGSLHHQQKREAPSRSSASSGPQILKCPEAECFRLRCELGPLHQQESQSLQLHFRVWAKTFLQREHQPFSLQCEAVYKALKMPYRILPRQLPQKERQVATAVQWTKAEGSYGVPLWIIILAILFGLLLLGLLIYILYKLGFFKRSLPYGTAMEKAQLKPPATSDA
Chain of UniProt P08648 (P05556 21-798, chain 2 of 2, further chain): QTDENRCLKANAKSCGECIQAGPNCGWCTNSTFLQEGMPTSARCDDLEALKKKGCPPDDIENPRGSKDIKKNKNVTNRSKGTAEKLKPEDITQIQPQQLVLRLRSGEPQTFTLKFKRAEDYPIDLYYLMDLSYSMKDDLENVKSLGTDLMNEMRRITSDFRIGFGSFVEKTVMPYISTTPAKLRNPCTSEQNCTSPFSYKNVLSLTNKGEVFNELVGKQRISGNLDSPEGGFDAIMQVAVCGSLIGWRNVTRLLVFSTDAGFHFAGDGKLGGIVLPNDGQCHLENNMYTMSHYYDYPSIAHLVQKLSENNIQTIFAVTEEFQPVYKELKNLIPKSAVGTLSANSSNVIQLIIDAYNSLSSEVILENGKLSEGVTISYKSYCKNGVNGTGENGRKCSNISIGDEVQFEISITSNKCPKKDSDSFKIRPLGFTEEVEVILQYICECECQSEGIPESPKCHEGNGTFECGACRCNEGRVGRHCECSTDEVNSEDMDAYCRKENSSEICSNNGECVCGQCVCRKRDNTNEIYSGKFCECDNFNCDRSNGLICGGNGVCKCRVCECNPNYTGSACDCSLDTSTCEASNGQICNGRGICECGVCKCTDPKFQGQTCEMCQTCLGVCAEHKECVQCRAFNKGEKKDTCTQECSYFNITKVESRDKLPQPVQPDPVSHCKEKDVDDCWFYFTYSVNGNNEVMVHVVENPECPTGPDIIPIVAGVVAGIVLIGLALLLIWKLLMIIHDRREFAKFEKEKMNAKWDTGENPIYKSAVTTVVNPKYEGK

soluble recombinant InvL lacking the N-terminal signal sequence, with a C-terminal His10 tag (natural protein)
Kd (fibrinogen): 0.19 nM | Kd (collagen V): 15000 nM | Kd (α5β1 integrin): 0.38 nM

— PMC9245377
